# Laboratory results published in US7723091B2 (priority 1999, dated 2010).
# Read-outs that look alike come from different tables or passages of the source. Marks after values point to notes of the source that are not given here.
# Key:
# Cryptosporidium = assay: SCID mouse model of Cryptosporidium infection; details: for Parasite load (SD) Day 21 / Parasite load (SD) Day 28 / Parasite load (SD) Day 31 / Percent Inhibition Day 21 / Percent Inhibition Day 28 / Percent Inhibition Day 31: feces
# [1] = system: Eimeria acervulina sporozoites; assay: In vitro invasion of BHK cells by Eimeria acervulina sporozoites; assay type: cell-based
# Method: Eineria acervulina sporozoites or Eimeria tenella sporozoites and cultured baby hamster kidney (BHK) cells were prepared by published methods. See Augustine, Avian and Poultry Biology Reviews 1:113-122, 2000. For cell pretreatment, cell cultures were overlaid with dilutions of enzymes as described in Table 11, and examined for morphological changes from 5 to 45 min post overlay. After 45 minutes, the monolayer cultures were washed twice, then inoculated with untreated E. acervulina or E. tenella sporozoites. For application during infection, sporozoites were suspended in the appropriate dilution of the enzyme and inoculated immediately into the cell cultures. After 45 minutes incubation, cultures were fixed, stained, and the invasion was quantified.
# Observations were made looking for changes in gross morphology of sporozoites or cells due to enzyme treatment. At the enzyme levels used in these experiments, no morphological change was noted. The sporozoite invasion of the cultured cells was measured after the two methods of enzyme treatment, as well as without enzyme treatment, by histological staining and microscopy procedures. See Augustine, supra.
# [2] = system: E. acervulina and Clostridium perfringens; assay type: in vivo, broiler chickens
# [3] = Group A, 90 U/lb in feed, Day 3
# [4] = Group A, 90 U/lb in feed, Day 7
# [5] = Group A, 90 U/lb in feed, Day 10
# [6] = Group A, 90 U/lb in feed, Day 14
# [7] = Group A, 90 U/lb in feed, Day 17
# [8] = Group A, 90 U/lb in feed, Day 21
# [9] = Group A, 90 U/lb in feed, Day 24
# [10] = Group B, 30 U/lb in feed, Day 3
# [11] = Group B, 30 U/lb in feed, Day 7
# [12] = Group B, 30 U/lb in feed, Day 10
# [13] = Group B, 30 U/lb in feed, Day 14
# [14] = Group B, 30 U/lb in feed, Day 17
# [15] = Group B, 30 U/lb in feed, Day 21
# [16] = Group B, 30 U/lb in feed, Day 24
# [17] = Trial II T4 (Rec), T7 (Wt), infected, 10 U/lb
# [18] = Trial II T9, no infection challenge, 90 U/lb
substance,measurement,setting,value
phosphatidylinositol specific phospholipase C [Recombinant PI-PLC],Feed (g) consumed/mouse/day AVG,Cryptosporidium; [3],7.56 g
same,Weight (g) AVG,Cryptosporidium; [3],16.67 g
same,Feed (g) consumed/mouse/day AVG,Cryptosporidium; [4],8.31 g
same,Weight (g) AVG,Cryptosporidium; [4],16.95 g
same,Feed (g) consumed/mouse/day AVG,Cryptosporidium; [5],8.55 g
same,Weight (g) AVG,Cryptosporidium; [5],17.29 g
same,Feed (g) consumed/mouse/day AVG,Cryptosporidium; [6],7.78 g
same,Weight (g) AVG,Cryptosporidium; [6],17.43 g
same,Feed (g) consumed/mouse/day AVG,Cryptosporidium; [7],8.52 g
same,Weight (g) AVG,Cryptosporidium; [7],17.64 g
same,Feed (g) consumed/mouse/day AVG,Cryptosporidium; [8],7.89 g
same,Weight (g) AVG,Cryptosporidium; [8],18.25 g
same,Feed (g) consumed/mouse/day AVG,Cryptosporidium; [9],9.79 g
same,Weight (g) AVG,Cryptosporidium; [9],18.2 g
same,Feed (g) consumed/mouse/day AVG,Cryptosporidium; [10],6.13 g
same,Weight (g) AVG,Cryptosporidium; [10],17.055 g
same,Feed (g) consumed/mouse/day AVG,Cryptosporidium; [11],8.51 g
same,Weight (g) AVG,Cryptosporidium; [11],16.91 g
same,Feed (g) consumed/mouse/day AVG,Cryptosporidium; [12],7.93 g
same,Weight (g) AVG,Cryptosporidium; [12],17.08 g
same,Feed (g) consumed/mouse/day AVG,Cryptosporidium; [13],8.06 g
same,Weight (g) AVG,Cryptosporidium; [13],17.62 g
same,Feed (g) consumed/mouse/day AVG,Cryptosporidium; [14],8.53 g
same,Weight (g) AVG,Cryptosporidium; [14],17.84 g
same,Feed (g) consumed/mouse/day AVG,Cryptosporidium; [15],8.22 g
same,Weight (g) AVG,Cryptosporidium; [15],18.62 g
same,Feed (g) consumed/mouse/day AVG,Cryptosporidium; [16],8.3 g
same,Weight (g) AVG,Cryptosporidium; [16],18.63 g
same,reduction in parasite load in the treated groups,"Cryptosporidium; feces at 3, 4 and 4.5 weeks post-infection, 30 or 90 U/lb",34-54%
same,Parasite load (SD) Day 21,Cryptosporidium; 30 U/lb in feed,16.2 (4.7) oocysts/100 μl
same,Parasite load (SD) Day 28,Cryptosporidium; 30 U/lb in feed,23.4 (11)* oocysts/100 μl
same,Parasite load (SD) Day 31,Cryptosporidium; 30 U/lb in feed,74.3 (89.7)^+ oocysts/100 μl
same,Percent Inhibition Day 21,Cryptosporidium; 30 U/lb in feed,52.0%
same,Percent Inhibition Day 28,Cryptosporidium; 30 U/lb in feed,54.6%
same,Percent Inhibition Day 31,Cryptosporidium; 30 U/lb in feed,40.0%
same,Parasite load (SD) Day 21,Cryptosporidium; 90 U/lb in feed,22.7 (11.4) oocysts/100 μl
same,Parasite load (SD) Day 28,Cryptosporidium; 90 U/lb in feed,26.3 (14)* oocysts/100 μl
same,Parasite load (SD) Day 31,Cryptosporidium; 90 U/lb in feed,87.5 (52.9) oocysts/100 μl
same,Percent Inhibition Day 21,Cryptosporidium; 90 U/lb in feed,44.0%
same,Percent Inhibition Day 28,Cryptosporidium; 90 U/lb in feed,48.9%
same,Percent Inhibition Day 31,Cryptosporidium; 90 U/lb in feed,34.0%
same,Invasion counts (mean ± standard error of the mean),"[1]; Application of Enzyme During Infection, Test 1, B. cereus PI-PLC 0.0403 U/mL, recombinant 0.261 U/mL, listed as PI-PLC from Recombinant B. megateriaum",16 ± 2^c
same,Invasion counts (mean ± standard error of the mean),"[1]; Application of Enzyme During Infection, Test 1, recombinant PI-PLC 0.0261 U/mL",36 ± 3^b
same,Invasion counts (mean ± standard error of the mean),"[1]; Application of Enzyme During Infection, Test 2, B. cereus PI-PLC 0.0403 U/mL, recombinant 0.261 U/mL, listed as PI-PLC from Recombinant B. megateriaum",18 ± 1^bc
same,Invasion counts (mean ± standard error of the mean),"[1]; Application of Enzyme During Infection, Test 2, recombinant PI-PLC 0.0261 U/mL",9 ± 2^c
same,Invasion counts (mean ± standard error of the mean),"[1]; Cell Pretreatment with Enzyme Followed by Wash, Test 1, B. cereus PI-PLC 0.0403 U/mL, recombinant 0.261 U/mL, mannanase 5100 U/mL, listed as PI-PLC from Recombinant B. megateriaum",14 ± 1^b
same,Invasion counts (mean ± standard error of the mean),"[1]; Cell Pretreatment with Enzyme Followed by Wash, Test 1, recombinant PI-PLC 0.0261 U/mL",18 ± 1^ab
same,Invasion counts (mean ± standard error of the mean),"[1]; Cell Pretreatment with Enzyme Followed by Wash, Test 2, B. cereus PI-PLC 0.0403 U/mL, recombinant 0.261 U/mL, mannanase 5100 U/mL, listed as PI-PLC from Recombinant B. megateriaum",22 ± 1^b
same,Invasion counts (mean ± standard error of the mean),"[1]; Cell Pretreatment with Enzyme Followed by Wash, Test 2, recombinant PI-PLC 0.0261 U/mL",26 ± 1^ab
same,8-21 Day Feed Conversion (Corrected),"[2]; Trial II T3, infected, 3 U/lb",1.702
same,8-21 Day Weight Gain,"[2]; Trial II T3, infected, 3 U/lb",323.24
same,Average Intestinal Lesion Score,"[2]; Trial II T3, infected, 3 U/lb",1.120
same,8-21 Day Feed Conversion (Corrected),[2]; [17],1.732
same,8-21 Day Weight Gain,[2]; [17],324.78
same,Average Intestinal Lesion Score,[2]; [17],1.133
same,8-21 Day Feed Conversion (Corrected),"[2]; Trial II T5, infected, 30 U/lb",1.699
same,8-21 Day Weight Gain,"[2]; Trial II T5, infected, 30 U/lb",320.64
same,Average Intestinal Lesion Score,"[2]; Trial II T5, infected, 30 U/lb",0.842
same,8-21 Day Feed Conversion (Corrected),"[2]; Trial II T6, infected, 90 U/lb",1.739
same,8-21 Day Weight Gain,"[2]; Trial II T6, infected, 90 U/lb",328.29
same,Average Intestinal Lesion Score,"[2]; Trial II T6, infected, 90 U/lb",0.808
same,8-21 Day Feed Conversion (Corrected),[2]; [18],1.650
same,8-21 Day Weight Gain,[2]; [18],338.8
same,Average Intestinal Lesion Score,[2]; [18],0.847
same,"effect of varying concentrations on intestinal lesion score, feed conversion and weight gain","[2]; Trial II, T3-T6 (3-90 U/lb)",dose-dependent effect on lowering the intestinal lesion score and feed conversion (T3-T6) and increasing weight gain
